Measurements: patent publication US20250376501A1

Legend:
Assay in all cases: Gator BLI, hTSLP mutant from CHO cells against 3H10-biotin
[1] = biological target: hTSLP-K32A (human) (UniProt Q969D9)
[2] = biological target: hTSLP-L133A (human) (UniProt Q969D9)
[3] = biological target: hTSLP-N130A (human) (UniProt Q969D9)
[4] = biological target: hTSLP-R131A (human) (UniProt Q969D9)
[5] = biological target: hTSLP-S28A (human) (UniProt Q969D9)
[6] = biological target: hTSLP-R55A (human) (UniProt Q969D9)
[7] = biological target: hTSLP-K21A (human) (UniProt Q969D9)
[8] = biological target: hTSLP-D18A (human) (UniProt Q969D9)
[9] = biological target: hTSLP-L27A (human) (UniProt Q969D9)
[10] = biological target: hTSLP-K135A (human) (UniProt Q969D9)
[11] = biological target: hTSLP-K23A (human) (UniProt Q969D9)
[12] = biological target: hTSLP-E20A (human) (UniProt Q969D9)
[13] = biological target: hTSLP-S43A (human) (UniProt Q969D9)
[14] = biological target: hTSLP-R127A (human) (UniProt Q969D9)
hTSLP-R127A (human), sequence (Q969D9 29-159 R127A/R130A): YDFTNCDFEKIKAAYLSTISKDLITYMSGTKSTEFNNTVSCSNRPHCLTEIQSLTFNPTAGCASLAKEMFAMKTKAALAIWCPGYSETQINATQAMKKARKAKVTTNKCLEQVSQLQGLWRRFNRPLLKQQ

hTSLP-K135A (human), sequence (Q969D9 29-159 R127A/R130A): as above
hTSLP-E20A (human), sequence (Q969D9 29-159 R127A/R130A): as above
hTSLP-D18A (human), sequence (Q969D9 29-159 R127A/R130A): as above
hTSLP-L133A (human), sequence (Q969D9 29-159 R127A/R130A): as above
hTSLP-N130A (human), sequence (Q969D9 29-159 R127A/R130A): as above
hTSLP-L27A (human), sequence (Q969D9 29-159 R127A/R130A): as above
hTSLP-K23A (human), sequence (Q969D9 29-159 R127A/R130A): as above
hTSLP-K21A (human), sequence (Q969D9 29-159 R127A/R130A): as above
hTSLP-R55A (human), sequence (Q969D9 29-159 R127A/R130A): as above
hTSLP-R131A (human), sequence (Q969D9 29-159 R127A/R130A): as above
hTSLP-S43A (human), sequence (Q969D9 29-159 R127A/R130A): as above
hTSLP-K32A (human), sequence (Q969D9 29-159 R127A/R130A): as above
hTSLP-S28A (human), sequence (Q969D9 29-159 R127A/R130A): as above

Decreased fold in binding affinity compared to wild-type TSLP [1]: 1.2 fold
Decreased fold in binding affinity compared to wild-type TSLP [2]: 2.05 fold
Decreased fold in binding affinity compared to wild-type TSLP [3]: 2.2 fold
Decreased fold in binding affinity compared to wild-type TSLP [4]: 2.1 fold
Decreased fold in binding affinity compared to wild-type TSLP [5]: 5.1 fold
Decreased fold in binding affinity compared to wild-type TSLP [6]: 0.5 fold
Decreased fold in binding affinity compared to wild-type TSLP [7]: 11.9 fold
Decreased fold in binding affinity compared to wild-type TSLP [8]: 7.9 fold
Decreased fold in binding affinity compared to wild-type TSLP [9]: 9.3 fold
Decreased fold in binding affinity compared to wild-type TSLP [10]: 1.7 fold
Decreased fold in binding affinity compared to wild-type TSLP [11]: 2.4 fold
Decreased fold in binding affinity compared to wild-type TSLP [12]: 6.1 fold
Decreased fold in binding affinity compared to wild-type TSLP [13]: 5 fold
Decreased fold in binding affinity compared to wild-type TSLP [14]: 1.8 fold
B1: 3H10-biotin protein (designed binder)
chain: GSHMDLGKKLLEAAWAGRDDEVRILMANGADVNAGDASGDTPLHLAAFSGHLEIVEVLLKHGADVNAEDLLGMTPLHLAAPFGHLEIVEVLLKHGADVNAAARNNGKTPLHLAAFVGHLEIVEVLLKNGADVNAQDKFGKTAFDISIDNGNEDLAEILQKLNG
modifications: biotin (site not stated)
